Reverse-splicing fitness data for 30 variants are collected here from the RNAGym collection of RNA variant scans (doi:10.1093/molbev/msab373).

B1: Azoarcus group I ribozyme (parent)
chain: GUGCCUUGCGCCGGGAAACCACGCAAGGGAUGGUGUCAAAUUCGGCGAAACCUAAGCGCCCGCCCGGGCGUAUGGCAACGCCGAGCCAAGCUUCGGCGCCUGCGCCGAUGAAGGUGUAGAGACUAGACGGCACCCACCUAAGGCAAACGCUAUGGUGAAGGCAUAGUCCAGGGAGUGGCGAAAGUCACACAAACCGG

In this data set the parent is B1. In words: reverse-splicing fitness (ratio to wild type); higher = more active; in vitro selection; Mg2+ level not given. The method in brief: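 An in vitro group I ribozyme library with randomized positions was T7-transcribed and gel-purified. In triplicate, 10 pmol RNA in EPPS pH 7.5 was reacted with 50 pmoles of a 30-nt RNA substrate for 1 h at 37 °C across several added MgCl2 levels (1–48 mM), then stopped with EDTA. Products were reverse transcribed from a substrate-complementary primer, PCR-amplified and sequenced (HiSeq 4000). Fitness is a variant's read proportion after selection over that before, normalised to wild type.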
On to GUGCCUUGCGCCGGGAAACCACGCAAGGGAUGGUGUCAAAUUCGGCGAAACCUAAGCGCCCGCCCGGGCGUAUGGCAACGCUGAGCCAAGCUUCGGCGCCUGCGCCGAUGGAGGUGUAGUGACUAGACGGCACCCACCUAAGGCCAACGAUAUGGUGAAGGCAUAGUCCAGGGAGUGGCGAAAGUCACACAAACCGG, for which the reverse-splicing fitness came out at 0.00504.

Turning to GUGCCUUGCGCCGGGAAACCACGCAAGGGAUGGUGUCAAAUUCGGCGAAACCUAAGCGCCCGCCCGGGCGUAUGGCAACGCUGAGCCAAGCUUCGGCGCCUGCGCCGAUGGAGGUGUAGUGACUAGACGGCACCCACCUAAGGCCAACGGUAUGGUGAAGGCAUAGUCCAGGGAGUGGCGAAAGUCACACAAACCGG, the reverse-splicing fitness amounted to 0.00671.

Regarding GUGCCUUGCGCCGGGAAACCACGCAAGGGAUGGUGUCAAAUUCGGCGAAACCUAAGCGCCCGCCCGGGCGUAUGGCAACGCUGAGCCAAGCUUCGGCGCCUGCGCCGAUGGAGGUGUAGGGACUAGACGGCACCCACCUAAGGCAAACGCUAUGGUGAAGGCAUAGUCCAGGGAGGGGCGAAAGUCACACAAACCGG, the reverse-splicing fitness worked out at 0.00466.

In the case of GUGCCUUGCGCCGGGAAACCACGCAAGGGAUGGUGUCAAAUUCGGCGAAACCUAAGCGCCCGCCCGGGCGUAUGGCAACGCUGAGCCAAGCUUCGGCGCCUGCGCCGAUGGAGGUGUAGGGACUAGACGGCACCCACCUAAGGCAAACGCUAUGGUGAAGGCAUAGUCCAGGGAGCGGCGAAAGUCACACAAACCGG, the reverse-splicing fitness worked out at 0.0144.

Take GUGCCUUGCGCCGGGAAACCACGCAAGGGAUGGUGUCAAAUUCGGCGAAACCUAAGCGCCCGCCCGGGCGUAUGGCAACGCUGAGCCAAGCUUCGGCGCCUGCGCCGAUGGAGGUGUAGGGACUAGACGGCACCCACCUAAGGCAAACGCUAUGGUGAAGGCAUAGUCCAGGGAGAGGCGAAAGUCACACAAACCGG: the reverse-splicing fitness stood at 0.013.

Consider GUGCCUUGCGCCGGGAAACCACGCAAGGGAUGGUGUCAAAUUCGGCGAAACCUAAGCGCCCGCCCGGGCGUAUGGCAACGCUGAGCCAAGCUUCGGCGCCUGCGCCGAUGGAGGUGUAGUGACUAGACGGCACCCACCUAAGGCCAACGAUAUGGUGAAGGCAUAGUCCAGGGAGAGGCGAAAGUCACACAAACCGG, for which the reverse-splicing fitness was found to be 0.00269.

GUGCCUUGCGCCGGGAAACCACGCAAGGGAUGGUGUCAAAUUCGGCGAAACCUAAGCGCCCGCCCGGGCGUAUGGCAACGCUGAGCCAAGCUUCGGCGCCUGCGCCGAUGGAGGUGUAGUGACUAGACGGCACCCACCUAAGGCCAACGAUAUGGUGAAGGCAUAGUCCAGGGAGGGGCGAAAGUCACACAAACCGG: the reverse-splicing fitness was determined as 0.002.

Consider GUGCCUUGCGCCGGGAAACCACGCAAGGGAUGGUGUCAAAUUCGGCGAAACCUAAGCGCCCGCCCGGGCGUAUGGCAACGCUGAGCCAAGCUUCGGCGCCUGCGCCGAUGGAGGUGUAGUGACUAGACGGCACCCACCUAAGGCCAACGAUAUGGUGAAGGCAUAGUCCAGGGAGCGGCGAAAGUCACACAAACCGG, for which the reverse-splicing fitness was 0.00275.

For the variant GUGCCUUGCGCCGGGAAACCACGCAAGGGAUGGUGUCAAAUUCGGCGAAACCUAAGCGCCCGCCCGGGCGUAUGGCAACGCUGAGCCAAGCUUCGGCGCCUGCGCCGAUGGAGGUGUAGGGACUAGACGGCACCCACCUAAGGCAAACGCUAUGGUGAAGGCAUAGUCUAGGGAGAGGCGAAAGUCACACAAACCGG, the reverse-splicing fitness was 0.023.

Turning to GUGCCUUGCGCCGGGAAACCACGCAAGGGAUGGUGUCAAAUUCGGCGAAACCUAAGCGCCCGCCCGGGCGUAUGGCAACGCUGAGCCAAGCUUCGGCGCCUGCGCCGAUGGAGGUGUAGGGACUAGACGGCACCCACCUAAGGCAAACGCUAUGGUGAAGGCAUAGUCUAGGGAGCGGCGAAAGUCACACAAACCGG, the reverse-splicing fitness stood at 0.0174.

On to GUGCCUUGCGCCGGGAAACCACGCAAGGGAUGGUGUCAAAUUCGGCGAAACCUAAGCGCCCGCCCGGGCGUAUGGCAACGCUGAGCCAAGCUUCGGCGCCUGCGCCGAUGGAGGUGUAGGGACUAGACGGCACCCACCUAAGGCAAACGCUAUGGUGAAGGCAUAGUCUAGGGAGGGGCGAAAGUCACACAAACCGG, for which the reverse-splicing fitness was determined as 0.00533.

GUGCCUUGCGCCGGGAAACCACGCAAGGGAUGGUGUCAAAUUCGGCGAAACCUAAGCGCCCGCCCGGGCGUAUGGCAACGCUGAGCCAAGCUUCGGCGCCUGCGCCGAUGGAGGUGUAGGGACUAGACGGCACCCACCUAAGGCAAACGCUAUGGUGAAGGCAUAGUCUAGGGAGUGGCGAAAGUCACACAAACCGG: the reverse-splicing fitness turned out to be 0.0109.

For GUGCCUUGCGCCGGGAAACCACGCAAGGGAUGGUGUCAAAUUCGGCGAAACCUAAGCGCCCGCCCGGGCGUAUGGCAACGCUGAGCCAAGCUUCGGCGCCUGCGCCGAUGGAGGUGUAGUGACUAGACGGCACCCACCUAAGGCCAACGAUAUGGUGAAGGCAUAGUCAAGGGAGAGGCGAAAGUCACACAAACCGG, the reverse-splicing fitness stood at 0.00213.

With GUGCCUUGCGCCGGGAAACCACGCAAGGGAUGGUGUCAAAUUCGGCGAAACCUAAGCGCCCGCCCGGGCGUAUGGCAACGCUGAGCCAAGCUUCGGCGCCUGCGCCGAUGGAGGUGUAGUGACUAGACGGCACCCACCUAAGGCCAACGAUAUGGUGAAGGCAUAGUCAAGGGAGCGGCGAAAGUCACACAAACCGG, the reverse-splicing fitness stood at 0.00185.

Turning to GUGCCUUGCGCCGGGAAACCACGCAAGGGAUGGUGUCAAAUUCGGCGAAACCUAAGCGCCCGCCCGGGCGUAUGGCAACGCUGAGCCAAGCUUCGGCGCCUGCGCCGAUGGAGGUGUAGUGACUAGACGGCACCCACCUAAGGCCAACGAUAUGGUGAAGGCAUAGUCAAGGGAGGGGCGAAAGUCACACAAACCGG, the reverse-splicing fitness is 0.00186.

Take GUGCCUUGCGCCGGGAAACCACGCAAGGGAUGGUGUCAAAUUCGGCGAAACCUAAGCGCCCGCCCGGGCGUAUGGCAACGCUGAGCCAAGCUUCGGCGCCUGCGCCGAUGGAGGUGUAGUGACUAGACGGCACCCACCUAAGGCAAACGCUAUGGUGAAGGCAUAGUCCAGGGAGUGGCGAAAGUCACACAAACCGG: the reverse-splicing fitness was 0.0431.

In the case of GUGCCUUGCGCCGGGAAACCACGCAAGGGAUGGUGUCAAAUUCGGCGAAACCUAAGCGCCCGCCCGGGCGUAUGGCAACGCUGAGCCAAGCUUCGGCGCCUGCGCCGAUGGAGGUGUAGUGACUAGACGGCACCCACCUAAGGCCAACGAUAUGGUGAAGGCAUAGUCUAGGGAGAGGCGAAAGUCACACAAACCGG, the reverse-splicing fitness was 0.00182.

Consider GUGCCUUGCGCCGGGAAACCACGCAAGGGAUGGUGUCAAAUUCGGCGAAACCUAAGCGCCCGCCCGGGCGUAUGGCAACGCUGAGCCAAGCUUCGGCGCCUGCGCCGAUGGAGGUGUAGUGACUAGACGGCACCCACCUAAGGCCAACGAUAUGGUGAAGGCAUAGUCUAGGGAGCGGCGAAAGUCACACAAACCGG, for which the reverse-splicing fitness came out at 0.00235.

GUGCCUUGCGCCGGGAAACCACGCAAGGGAUGGUGUCAAAUUCGGCGAAACCUAAGCGCCCGCCCGGGCGUAUGGCAACGCUGAGCCAAGCUUCGGCGCCUGCGCCGAUGGAGGUGUAGUGACUAGACGGCACCCACCUAAGGCCAACGAUAUGGUGAAGGCAUAGUCUAGGGAGGGGCGAAAGUCACACAAACCGG: the reverse-splicing fitness was found to be 0.00196.

As for GUGCCUUGCGCCGGGAAACCACGCAAGGGAUGGUGUCAAAUUCGGCGAAACCUAAGCGCCCGCCCGGGCGUAUGGCAACGCUGAGCCAAGCUUCGGCGCCUGCGCCGAUGGAGGUGUAGGGACUAGACGGCACCCACCUAAGGCAAACGCUAUGGUGAAGGCAUAGUCGAGGGAGGGGCGAAAGUCACACAAACCGG, the reverse-splicing fitness was determined as 0.00369.

For GUGCCUUGCGCCGGGAAACCACGCAAGGGAUGGUGUCAAAUUCGGCGAAACCUAAGCGCCCGCCCGGGCGUAUGGCAACGCUGAGCCAAGCUUCGGCGCCUGCGCCGAUGGAGGUGUAGGGACUAGACGGCACCCACCUAAGGCAAACGCUAUGGUGAAGGCAUAGUCGAGGGAGCGGCGAAAGUCACACAAACCGG, the reverse-splicing fitness is 0.0247.

As to GUGCCUUGCGCCGGGAAACCACGCAAGGGAUGGUGUCAAAUUCGGCGAAACCUAAGCGCCCGCCCGGGCGUAUGGCAACGCUGAGCCAAGCUUCGGCGCCUGCGCCGAUGGAGGUGUAGUGACUAGACGGCACCCACCUAAGGCCAACGGUAUGGUGAAGGCAUAGUCAAGGGAGUGGCGAAAGUCACACAAACCGG, the reverse-splicing fitness turned out to be 0.00238.

As to GUGCCUUGCGCCGGGAAACCACGCAAGGGAUGGUGUCAAAUUCGGCGAAACCUAAGCGCCCGCCCGGGCGUAUGGCAACGCUGAGCCAAGCUUCGGCGCCUGCGCCGAUGGAGGUGUAGUGACUAGACGGCACCCACCUAAGGCCAACGCUAUGGUGAAGGCAUAGUCCAGGGAGUGGCGAAAGUCACACAAACCGG, the reverse-splicing fitness was 0.0379.

On to GUGCCUUGCGCCGGGAAACCACGCAAGGGAUGGUGUCAAAUUCGGCGAAACCUAAGCGCCCGCCCGGGCGUAUGGCAACGCUGAGCCAAGCUUCGGCGCCUGCGCCGAUGGAGGUGUAGUGACUAGACGGCACCCACCUAAGGCCAACGGUAUGGUGAAGGCAUAGUCAAGGGAGAGGCGAAAGUCACACAAACCGG, for which the reverse-splicing fitness was 0.00187.

Turning to GUGCCUUGCGCCGGGAAACCACGCAAGGGAUGGUGUCAAAUUCGGCGAAACCUAAGCGCCCGCCCGGGCGUAUGGCAACGCUGAGCCAAGCUUCGGCGCCUGCGCCGAUGGAGGUGUAGUGACUAGACGGCACCCACCUAAGGCCAACGAUAUGGUGAAGGCAUAGUCGAGGGAGCGGCGAAAGUCACACAAACCGG, the reverse-splicing fitness is 0.00206.

With GUGCCUUGCGCCGGGAAACCACGCAAGGGAUGGUGUCAAAUUCGGCGAAACCUAAGCGCCCGCCCGGGCGUAUGGCAACGCUGAGCCAAGCUUCGGCGCCUGCGCCGAUGGAGGUGUAGUGACUAGACGGCACCCACCUAAGGCCAACGAUAUGGUGAAGGCAUAGUCGAGGGAGAGGCGAAAGUCACACAAACCGG, the reverse-splicing fitness came to 0.00205.

Turning to GUGCCUUGCGCCGGGAAACCACGCAAGGGAUGGUGUCAAAUUCGGCGAAACCUAAGCGCCCGCCCGGGCGUAUGGCAACGCUGAGCCAAGCUUCGGCGCCUGCGCCGAUGGAGGUGUAGUGACUAGACGGCACCCACCUAAGGCCAACGAUAUGGUGAAGGCAUAGUCGAGGGAGGGGCGAAAGUCACACAAACCGG, the reverse-splicing fitness came to 0.0017.

For the variant GUGCCUUGCGCCGGGAAACCACGCAAGGGAUGGUGUCAAAUUCGGCGAAACCUAAGCGCCCGCCCGGGCGUAUGGCAACGCUGAGCCAAGCUUCGGCGCCUGCGCCGAUGGAGGUGUAGUGACUAGACGGCACCCACCUAAGGCCAACGAUAUGGUGAAGGCAUAGUCAAGGGAGUGGCGAAAGUCACACAAACCGG, the reverse-splicing fitness amounted to 0.00199.

For the variant GUGCCUUGCGCCGGGAAACCACGCAAGGGAUGGUGUCAAAUUCGGCGAAACCUAAGCGCCCGCCCGGGCGUAUGGCAACGCUGAGCCAAGCUUCGGCGCCUGCGCCGAUGGAGGUGUAGUGACUAGACGGCACCCACCUAAGGCCAACGAUAUGGUGAAGGCAUAGUCGAGGGAGUGGCGAAAGUCACACAAACCGG, the reverse-splicing fitness came to 0.00197.

Take GUGCCUUGCGCCGGGAAACCACGCAAGGGAUGGUGUCAAAUUCGGCGAAACCUAAGCGCCCGCCCGGGCGUAUGGCAACGCUGAGCCAAGCUUCGGCGCCUGCGCCGAUGGAGGUGUAGUGACUAGACGGCACCCACCUAAGGCCAACGAUAUGGUGAAGGCAUAGUCUAGGGAGUGGCGAAAGUCACACAAACCGG: the reverse-splicing fitness was found to be 0.00217.
